Source: patent publication US20140294765A1 (COMPUGEN, published 2014)

Columns and labels:
[1] = target: T1, Peptide 2, amino acid residues 118-135 of SEQ ID NO:10 (human); experiment: ELISA, hybridoma culture supernatant
T1 construct: Immunisation peptide from the ECD of human LSR
T1 peptide: CQDSVRTVRVVATKQGNA
Description: FACS analysis was subsequently carried out with purified monoclonal Ab, 8C8, using a goat anti mouse-Alexa Fluor 488 (Invitrogen cat# A10667) as secondary Ab for detection.
Culture supernatants of the hybridoma clones were analyzed by ELISA.

[2] = target: T2, mouse WT LSR protein expressed in stably transfected HEK293 or CHO-K1 cells (mouse, UniProt Q99KG5 36-594); experiment: flow cytometry on stably transfected CHO-K1 cells, 8C8 at 1, 2.5, 5 and 10 ug/ml, Geo Mean (FL1)
T2 construct: Made with a C-terminal Flag tag (pcDNA3.1); Lysate for the Western blot; also called WT-Mouse LSR-flag protein
T2 sequence: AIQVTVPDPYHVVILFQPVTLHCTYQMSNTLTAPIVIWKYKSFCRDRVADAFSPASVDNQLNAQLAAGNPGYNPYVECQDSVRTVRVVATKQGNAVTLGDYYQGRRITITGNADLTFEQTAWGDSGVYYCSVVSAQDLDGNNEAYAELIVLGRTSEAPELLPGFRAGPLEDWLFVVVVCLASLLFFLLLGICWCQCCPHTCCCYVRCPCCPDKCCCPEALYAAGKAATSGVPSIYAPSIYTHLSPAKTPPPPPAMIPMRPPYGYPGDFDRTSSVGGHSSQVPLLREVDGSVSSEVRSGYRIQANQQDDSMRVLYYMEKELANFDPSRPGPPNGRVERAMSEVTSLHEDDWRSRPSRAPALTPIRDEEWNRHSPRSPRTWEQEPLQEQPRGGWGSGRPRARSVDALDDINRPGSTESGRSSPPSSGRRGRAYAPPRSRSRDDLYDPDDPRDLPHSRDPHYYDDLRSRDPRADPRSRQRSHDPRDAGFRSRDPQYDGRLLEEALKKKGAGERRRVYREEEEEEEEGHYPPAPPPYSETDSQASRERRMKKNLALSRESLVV

binding result [1]: no binding | binding result [2]: binds
B1: 8C8, mouse IgG2a monoclonal antibody against human LSR (antibody, V domains shown)
VH: DVKLVESGGGLVKLGGSLKLSCAASGFTFSSYYMSWVRQTPEKRLELVAAINSNGGSTYYPDTVKGRFTISRDNAKNTLYLQMSSLKSEDTALYYCARHDYYGSSFAMDYWGQGTSVTVSS
VL: DIQMTQTTSSLSASLGDRVTISCRASQDISNYLNWYQQKPDGTVKLLIYYTSRLHSGVPSRFSGSGSGTDYSLTISNLEQEDIATYFCQQDSKHPWTFGGGTKLEIK
notes: also called 8C8 mAb; mAb 8C8
